# Reference: patent US20170268035, “GENOMIC PROBES” (Howard Hughes Medical Institute, published 2017)
# T1: dCas9-Halo (D10A/H840A SpCas9, nuclease-deficient) (Streptococcus pyogenes, UniProt Q99ZW2 SEQ:8-1375)
# T1 chain: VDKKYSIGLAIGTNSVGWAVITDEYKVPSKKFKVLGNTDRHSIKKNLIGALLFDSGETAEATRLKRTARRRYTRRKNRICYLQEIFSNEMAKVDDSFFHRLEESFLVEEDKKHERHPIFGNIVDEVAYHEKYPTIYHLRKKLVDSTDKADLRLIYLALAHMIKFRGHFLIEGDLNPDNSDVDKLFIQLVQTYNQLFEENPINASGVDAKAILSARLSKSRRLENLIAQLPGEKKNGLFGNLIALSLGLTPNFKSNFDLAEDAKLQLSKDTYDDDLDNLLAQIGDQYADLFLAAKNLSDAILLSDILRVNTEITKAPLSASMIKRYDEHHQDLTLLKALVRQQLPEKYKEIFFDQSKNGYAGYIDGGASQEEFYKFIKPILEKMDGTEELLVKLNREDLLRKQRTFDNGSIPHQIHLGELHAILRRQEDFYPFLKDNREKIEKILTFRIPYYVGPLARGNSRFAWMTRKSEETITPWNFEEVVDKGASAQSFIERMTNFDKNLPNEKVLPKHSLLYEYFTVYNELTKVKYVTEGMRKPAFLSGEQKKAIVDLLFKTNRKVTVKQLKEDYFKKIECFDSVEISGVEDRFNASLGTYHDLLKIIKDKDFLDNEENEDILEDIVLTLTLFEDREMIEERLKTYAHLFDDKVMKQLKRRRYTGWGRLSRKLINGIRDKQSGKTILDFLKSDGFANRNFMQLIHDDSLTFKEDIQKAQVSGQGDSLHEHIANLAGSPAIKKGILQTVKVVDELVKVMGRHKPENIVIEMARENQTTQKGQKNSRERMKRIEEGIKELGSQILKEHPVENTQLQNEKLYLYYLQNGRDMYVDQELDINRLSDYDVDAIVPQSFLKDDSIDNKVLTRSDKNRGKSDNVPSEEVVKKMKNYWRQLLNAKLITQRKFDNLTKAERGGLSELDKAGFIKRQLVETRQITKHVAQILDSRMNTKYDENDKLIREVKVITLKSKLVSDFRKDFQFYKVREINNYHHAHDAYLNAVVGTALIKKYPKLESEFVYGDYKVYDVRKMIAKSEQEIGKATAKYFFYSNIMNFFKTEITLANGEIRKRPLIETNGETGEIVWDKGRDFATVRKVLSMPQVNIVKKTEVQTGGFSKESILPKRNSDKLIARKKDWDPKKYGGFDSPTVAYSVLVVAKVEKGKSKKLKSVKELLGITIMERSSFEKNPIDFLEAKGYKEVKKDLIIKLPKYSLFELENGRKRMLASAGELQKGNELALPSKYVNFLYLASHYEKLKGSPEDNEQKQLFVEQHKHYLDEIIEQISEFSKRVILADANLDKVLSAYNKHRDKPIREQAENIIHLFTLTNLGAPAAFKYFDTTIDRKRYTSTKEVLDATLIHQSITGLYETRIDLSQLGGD
# How the values were obtained:
# [1] = target: T1, dCas9-Halo (D10A/H840A SpCas9, …); assay: EMSA; binary complex; 100-fold unlabelled sgRNA did not displace; room temperature; settings: tags: N-terminal His6, C-terminal HaloTag; JF549 or JF646 Halo ligand labelled; label: 5'-DY547
# Protocol: The stability of the complex is evident from the lack of competition. The control lane (ctrl) indicates the reaction product from a mixture of Cy5 DNA and 30-fold of unlabeled target DNA with dCas9/sgRNA binary complex. As expected, only a small fraction of Cy5-DNA was incorporated into the dCas9 tertiary complex. (B) Competition EMSAs assessing the stability of the binary complex. (B, Left) The indicated fluorescent binary complex was assembled at room temperature for 10 min and incubated further with the indicated fold-amounts of unlabeled sgMajSat at room temperature for 10 min. Unlabeled target DNA was added to the solution subsequently to form a tertiary complex followed by gel electrophoresis. (B, Right) The DY547 intensity of the bands of the tertiary complex plotted as a histogram. The stability of the binary complex of dCas9 and DY547-sgRNA is evident from the lack of competition. The control lane (ctrl) indicates the reaction product from the binary complex formed by a mixture of DY547-sgMajSat and 100-fold of unlabeled sgMajSat with dCas9 protein. As expected, only a small fraction of DY547-sgMajSat was incorporated into the dCas9 tertiary complex. (C) Schematic of two-color CASFISH methods. […]
# To explore the possibility of applying multiple dCas9/sgRNA species in one step for multicolor imaging, we assessed the stability of the binary complex by sgRNA competition assay.
# [2] = target: T1, dCas9-Halo (D10A/H840A SpCas9, …); assay: EMSA; PAM TGG; tertiary complex stable to 100-fold competitor DNA and 1.5 h with 30-fold; 37 C; settings: tags: N-terminal His6, C-terminal HaloTag; JF549 or JF646 Halo ligand labelled; label: 5'-DY547; Cy5 (EMSA)
# Protocol: The stability of the complex is evident from the lack of competition. Error bars represent SD of three independent experiments.
# dCas9 protein and sgRNA were incubated together at room temperature for 10 min to examine the binary complex and subsequently were incubated with target DNA at 37° C. for 15 min to examine the tertiary complex. For the competition assay, an additional binary or tertiary complex reaction was performed after the addition of the competitor molecules. Resulting reaction mixtures were subjected to electrophoresis of 1% agarose gel in 1× Tris/borate/EDTA buffer containing 5 mM MgCl2 and were imaged with GE Typhoon Trio+Imagers.
# Simultaneous imaging of multiple chromatin domains or genes is critical for studying chromatin interactions. To explore the possibility of using CASFISH to detect multiple DNA targets simultaneously, we first investigated the binding of CASFISH probes to target DNA by electrophoretic mobility shift assays (EMSA). […] To examine the stability of dCas9/sgMajSat binding to its target DNA, we carried out competition assays by adding excessive amounts of unlabeled target DNA to a preformed tertiary complex of JF549-dCas9/sgMajSat/Cy5-DNA. […]
binder,measurement,setting,value
DY547-sgMajSat (ssRNA) RNA: CCAUAUUCCACGUCCUACAGGUUUAAGAGCUAUGCUGGAAACAGCAUAGCAAGUUUAAAUAAGGCUAGUCCGUUAUCAACUUGAAAAAGUGGCACCGAGUCGGUGCUUUUUUU,binding result,[1],binds
DY547-sgMajSat ; major satellite target DNA (ssRNA ; dsDNA) RNA: CCAUAUUCCACGUCCUACAGGUUUAAGAGCUAUGCUGGAAACAGCAUAGCAAGUUUAAAUAAGGCUAGUCCGUUAUCAACUUGAAAAAGUGGCACCGAGUCGGUGCUUUUUUU DNA 1: TTTCTTGCCATATTCCACGTCCTACAGTGG DNA 2: CCACTGTAGGACGTGGAATATGGCAAGAAA,binding result,[2],binds
